Results from paper PMC2737085.

Biological target: RPA heterotrimer with the phosphomimetic Asp8-RPA2 subunit (UniProt P27694)
Assay: co-IP

With “MRE11/RAD50/NBS1 (MRN) complex (from UniProt P49959 1-708; Q92878 1-1312; O60934 1-754)” as the substance, how does the percent decrease in binding against RPA read?
The percent decrease in binding against RPA was 88%.
